How the values were obtained:
[1] = target: hen egg lysozyme, P00698; assay: ELISA; settings: chain shown with the change;, read off a plot
[2] = target: hen egg lysozyme, P00698; assay: SPR; settings: chain shown with the change;, read off a plot

Sequence of hen egg lysozyme, P00698 (P00698 19-147): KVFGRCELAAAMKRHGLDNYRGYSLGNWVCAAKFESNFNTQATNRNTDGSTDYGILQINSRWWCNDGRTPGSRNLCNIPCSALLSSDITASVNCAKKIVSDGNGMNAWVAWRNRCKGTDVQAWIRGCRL

Row | EC50 ([1]; parent: est. 0.92) [µg/mL] | Kd ([2]; parent: est. 3.1e-12) [nM] | Kd ([2]; parent: est. 3.3 pM) [nM] | EC50 ([1]; parent: est. 0.90) [µg/mL] | Binder
1 | 1.5 | 0.0067 |  |  | anti-lysozyme VHH D3-L11, wild type A79L (protein) DVQLVESGGGSVQAGGSLRLSCAASGSTDSIEYMTWFRQAPGKAREGVAALYTHTGNTYYTDSVKGRFTISQDKAKNMLYLRMDSVKSEDTAIYTCGATRKYVPVRFALDQSSYDYWGQGTQVTVSS
2 | 1900 | 0.015 |  |  | anti-lysozyme VHH D3-L11, wild type A79W (protein) DVQLVESGGGSVQAGGSLRLSCAASGSTDSIEYMTWFRQAPGKAREGVAALYTHTGNTYYTDSVKGRFTISQDKAKNMWYLRMDSVKSEDTAIYTCGATRKYVPVRFALDQSSYDYWGQGTQVTVSS
3 | 120 | 0.023 |  |  | anti-lysozyme VHH D3-L11, wild type A79H (protein) DVQLVESGGGSVQAGGSLRLSCAASGSTDSIEYMTWFRQAPGKAREGVAALYTHTGNTYYTDSVKGRFTISQDKAKNMHYLRMDSVKSEDTAIYTCGATRKYVPVRFALDQSSYDYWGQGTQVTVSS
4 | 0.92 | 0.0049 |  |  | anti-lysozyme VHH D3-L11, wild type A79I (protein) DVQLVESGGGSVQAGGSLRLSCAASGSTDSIEYMTWFRQAPGKAREGVAALYTHTGNTYYTDSVKGRFTISQDKAKNMIYLRMDSVKSEDTAIYTCGATRKYVPVRFALDQSSYDYWGQGTQVTVSS
5 | 31 | 0.026 |  |  | anti-lysozyme VHH D3-L11, wild type A79R (protein) DVQLVESGGGSVQAGGSLRLSCAASGSTDSIEYMTWFRQAPGKAREGVAALYTHTGNTYYTDSVKGRFTISQDKAKNMRYLRMDSVKSEDTAIYTCGATRKYVPVRFALDQSSYDYWGQGTQVTVSS
6 |  | 0.013 |  |  | anti-lysozyme VHH D3-L11, wild type A79T (protein) DVQLVESGGGSVQAGGSLRLSCAASGSTDSIEYMTWFRQAPGKAREGVAALYTHTGNTYYTDSVKGRFTISQDKAKNMTYLRMDSVKSEDTAIYTCGATRKYVPVRFALDQSSYDYWGQGTQVTVSS
7 | 2.5 | 0.0036 |  |  | anti-lysozyme VHH D3-L11, wild type A79V (protein) DVQLVESGGGSVQAGGSLRLSCAASGSTDSIEYMTWFRQAPGKAREGVAALYTHTGNTYYTDSVKGRFTISQDKAKNMVYLRMDSVKSEDTAIYTCGATRKYVPVRFALDQSSYDYWGQGTQVTVSS
8 |  |  | 0.026 |  | anti-lysozyme VHH D3-L11, wild type G26I (protein) DVQLVESGGGSVQAGGSLRLSCAASISTDSIEYMTWFRQAPGKAREGVAALYTHTGNTYYTDSVKGRFTISQDKAKNMAYLRMDSVKSEDTAIYTCGATRKYVPVRFALDQSSYDYWGQGTQVTVSS
9 |  | 0.0055 |  |  | anti-lysozyme VHH D3-L11, wild type A79Y (protein) DVQLVESGGGSVQAGGSLRLSCAASGSTDSIEYMTWFRQAPGKAREGVAALYTHTGNTYYTDSVKGRFTISQDKAKNMYYLRMDSVKSEDTAIYTCGATRKYVPVRFALDQSSYDYWGQGTQVTVSS
10 |  |  | 0.0062 | 3.2 | anti-lysozyme VHH D3-L11, wild type G97F (protein) DVQLVESGGGSVQAGGSLRLSCAASGSTDSIEYMTWFRQAPGKAREGVAALYTHTGNTYYTDSVKGRFTISQDKAKNMAYLRMDSVKSEDTAIYTCFATRKYVPVRFALDQSSYDYWGQGTQVTVSS
11 | 6.7 | 0.0081 |  |  | anti-lysozyme VHH D3-L11, wild type A79N (protein) DVQLVESGGGSVQAGGSLRLSCAASGSTDSIEYMTWFRQAPGKAREGVAALYTHTGNTYYTDSVKGRFTISQDKAKNMNYLRMDSVKSEDTAIYTCGATRKYVPVRFALDQSSYDYWGQGTQVTVSS
12 | 10 | 0.0037 |  |  | anti-lysozyme VHH D3-L11, wild type A79C (protein) DVQLVESGGGSVQAGGSLRLSCAASGSTDSIEYMTWFRQAPGKAREGVAALYTHTGNTYYTDSVKGRFTISQDKAKNMCYLRMDSVKSEDTAIYTCGATRKYVPVRFALDQSSYDYWGQGTQVTVSS
13 |  |  | 0.045 |  | anti-lysozyme VHH D3-L11, wild type A24L (protein) DVQLVESGGGSVQAGGSLRLSCALSGSTDSIEYMTWFRQAPGKAREGVAALYTHTGNTYYTDSVKGRFTISQDKAKNMAYLRMDSVKSEDTAIYTCGATRKYVPVRFALDQSSYDYWGQGTQVTVSS
14 | 7.6 | 0.012 |  |  | anti-lysozyme VHH D3-L11, wild type A79S (protein) DVQLVESGGGSVQAGGSLRLSCAASGSTDSIEYMTWFRQAPGKAREGVAALYTHTGNTYYTDSVKGRFTISQDKAKNMSYLRMDSVKSEDTAIYTCGATRKYVPVRFALDQSSYDYWGQGTQVTVSS
15 | 9.5 | 0.0072 |  |  | anti-lysozyme VHH D3-L11, wild type A79Q (protein) DVQLVESGGGSVQAGGSLRLSCAASGSTDSIEYMTWFRQAPGKAREGVAALYTHTGNTYYTDSVKGRFTISQDKAKNMQYLRMDSVKSEDTAIYTCGATRKYVPVRFALDQSSYDYWGQGTQVTVSS
16 | 4.2 | 0.0068 |  |  | anti-lysozyme VHH D3-L11, wild type A79M (protein) DVQLVESGGGSVQAGGSLRLSCAASGSTDSIEYMTWFRQAPGKAREGVAALYTHTGNTYYTDSVKGRFTISQDKAKNMMYLRMDSVKSEDTAIYTCGATRKYVPVRFALDQSSYDYWGQGTQVTVSS
17 |  | 0.012 | 0.012 |  | anti-lysozyme VHH D3-L11, wild type A79F (protein) DVQLVESGGGSVQAGGSLRLSCAASGSTDSIEYMTWFRQAPGKAREGVAALYTHTGNTYYTDSVKGRFTISQDKAKNMFYLRMDSVKSEDTAIYTCGATRKYVPVRFALDQSSYDYWGQGTQVTVSS

From PMC10039853
